Laboratory results: patent US20100129315A1

Molecular target: human MN protein, entire extra-cellular domain with a C-terminal histag, expressed in HKB-11 cells (human) (UniProt Q16790)
Assay: method not restated (Biacore by context)

MN antibody G250, a humanized IgG1 antibody (Wilex)
Kd: 5.3 nM
